In the nanobody polyreactivity screen of Harvey et al. (2022):

Assay: yeast display, Sf9 membrane polyspecificity reagent, FACS + sequencing; frameworks hold sequencing errors
In short: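 Sorting gates, low and high (top ~1%), were placed on anti-HA fluorescence to track expression and on streptavidin fluorescence to track reagent binding. A clone's polyreactivity label is taken from the gate it came out of. The reagent was 10% biotinylated, detergent-solubilized Sf9 membrane, applied for 1 hour at 4 °C to galactose-induced yeast display cells.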

QVQLVESGGGLVQAGGSLRLSCAASGRTFAWYTMGWYRQAPGKERELVAAISGSGGSTYYADSVKGRFTISRDNAKNTVYLQMNSLKPEDTAVYYCARRVDSYYGHTRYYYWGQGTQVTVSS
polyreactivity (PSR sort gate): high polyreactivity

QVQLQESGGGLVQAGGSLRPSCAASGSLSDGVPMGWYRQAPGEERELVATTVLGATTNYADSVKGRFTISRGNAKNTVYLQMNSLKPEETAVYYCAAPLRYDKGFSYWGQGTQVTVSS
polyreactivity (PSR sort gate): low polyreactivity

QVQHVESGGGLVQAGGSLRLRCAASGFTFGSYAMGWYRQAPGKERELVASISSAGRTYYADSVKGRITISRDNAKNSVYLQMNSLKPEDTAVYYCNTDARVTIYDYDYWGQGTQVTVSS
polyreactivity (PSR sort gate): low polyreactivity

QVQLVESGGGLVQAGGSLRLSCAASGITFAYYVMGWYRQAPGKERELVAAINWSGGSTYYADSVKGRFTISRDNAKNTVYLQMNSLKPEDTAVYYCAADWSTWYGEKFYWGHGTQVTVSS
polyreactivity (PSR sort gate): high polyreactivity

QVQLVESGGGLVQAGGRLRLSCAASGSTLPANAMGWYRQAPGKERELVSAITITTDGSTYYADSVKGRFTISRDNAKNTVYLQMNSLKPEDTAVYYCAVDRYRYHNRKMGYWGQGTEVTVSS
polyreactivity (PSR sort gate): low polyreactivity

QVQLVESGGGLVQAGGSLRLSCAASGSTLYPNAMGWYRHAPGKERELVAAISSGSSTYADSVKGRFTISRDNAKNTVYLQMNSLKPEDTAVYYCNADSRIHYDYWGQGTQLTVSS
polyreactivity (PSR sort gate): low polyreactivity

QVQLVESGGGLVQAGGSRRLSCAATGRTFGRYSMGWDRQAPGKERELVAAITTIGGSTYYADSVKGRFTISRDNAKNTVYLQMNSLKTEDTAVYYCAAGWVTNSDGMDYWGQGTQVTVSS
polyreactivity (PSR sort gate): low polyreactivity

QVQLVESGGGLVQAGGSLRLSCAASGRTFVYYVMGWYRQAPGKERELVAGISRGGSTDYADSVKGRFTISRDNAKNTVYLQMNSLKPEDTAVYYCNRLLRRHLYIFYYWGQGTQVTVSS
polyreactivity (PSR sort gate): high polyreactivity

QVQLVESGGGLGQAGGSLRLSCAASGRIFSYNSMGWYRPATGKERELVAAISTSGGSTYYADSVKGRFTISRDYAKNTVYLQLISLKPEDTAVYYCNARAPFSSAQPTFLIDDGYHWGQGTQETVSS
polyreactivity (PSR sort gate): low polyreactivity

QVQLVESGGGLVQAGGSLRLSCAASGRTFGGNVRVWYRQAPGKERELVAAISYSGRSTHYAESVKGRFTISRDNAKNTVILQMNSLKPEDTAVYYCNKPFPYYPDGPNGYDYWGQGTKVTVSS
polyreactivity (PSR sort gate): low polyreactivity

QVQLVESGGGLVQAGGILRLSCAATGSTFVNNVMGWYRQGPRKESDLFAAISRRATSTRYADSVKGRFTISRDHAKNTVYLQMNSLKPEDTEVYYCAATLYVGVTGYGYWGQGTQVTVSS
polyreactivity (PSR sort gate): high polyreactivity

QDQLVESGGGLVQAGGSLRLSCAASGSTFGVNAMGWYRQAPGKERELVAIITSTTYSDSVKGRFTISRDNAKNTVYLQMNSLKPEDTAVYYSAADSLLVLFDYWGQGTQVTVSS
polyreactivity (PSR sort gate): low polyreactivity

QVQLVESGGGLVQAGGSLRLSCAASGSIFDAYMGWYRQAPGKERELVAGITRSGGSTYYADSVKGRFTISRDNAKNSVYLQMNSLKPEDTAVYYCAADYSSDGDYWGQGTQVTVSS
polyreactivity (PSR sort gate): low polyreactivity

QVQLVESGGGLVQAGGSLRLSCAASGNTFYPNAMGWYRKAPGKERELVAAISSSGGSTYYADSVKGRFTISRDNAKNTVYLQMNSLKPEDTAVYYRAAEFDYPWSGEYYYWGQGTQVTVSS
polyreactivity (PSR sort gate): high polyreactivity

QVQLVESGGGLVQAGGSLRLSCAASGRTFLYYAMGWYRQAPGKERELVAAISSGGSTNYADSVKGRFTISRDNAKNTVYLQMNSLKPEDTAVYYCNADYTSRDTSDVIYEYDYWGQGTQVTVSS
polyreactivity (PSR sort gate): low polyreactivity

QVQLQESGGGLVQAGGSLRLSCAASGTISDRAGMGWYRQAPAKNAIVANIDRGTNTNYADSVKGRFTISRDNAKNTVYLQMNSLKPEDTAVYNCAADGRYYIYLDYWGQGTQVTVSS
polyreactivity (PSR sort gate): low polyreactivity

QVQLVESGGGLVQAVGSLRLSCADSGTFPYYAMGRYRQAPWKERELVAAITRSGTRTYYADSVKGRFTISRDNAKNTGYLQMKSLKPEDTAVYYCAARQTGFSSQFRGYYSWGQGTQVTVSS
polyreactivity (PSR sort gate): high polyreactivity

QVQLVESGGGLVQAGGSLRLSCAASGLIFLTYAMGWYRQAPGKERELLATISGSTGGTYYADSVKGRFTISRDNAKNSVYLKMNSLKPEDTAVYYCNRRYGRSFRWGYCYWGEGTQVTVSS
polyreactivity (PSR sort gate): low polyreactivity

QVQLVESGRGLVQAGVSLRLSCAASGRIFTNNAMGLYRQAPGKERELVAAINVSGGRTYYADSVKGRFTISRENAKNTVYLQMNSLKPEDTAVYYCNKVKETYMDYWGQGTQVTVSS
polyreactivity (PSR sort gate): high polyreactivity

QVQLVESGGGLVQAGGSLRLSCAASGSIFSANAMGWYRQAPGKERELVAAISDGGAATYYADSVKGRFTISRDNAKHTVYLQMNSLKPEDTAVYYCIADDAFWTVVDGNWRYEYDYWGQGTQVTVSS
polyreactivity (PSR sort gate): low polyreactivity

QVQLVESGGGLVQAGGRLRLSCAASGRIFDPYAMGWCRQAPGKESELVASISWSGGRTYYADSVKGRFTISRDNAKNTVYLQMNSLKPEDTAVYYCAAREWYRYKVRFDYWGQGTQVTVSS
polyreactivity (PSR sort gate): high polyreactivity

QVQLVESGGGLVQAGGSLRLSCAATGSNLIYVMGGYRQAPGKERELVASITFSGGSTYYADSVKGRFTISRDNAKNTVYLQMNRLKPEDTAVYYCAAVPLWDYKFFYYMLYDYWGQGTQVTVSS
polyreactivity (PSR sort gate): low polyreactivity

QDQLVDSGGGLVQAGGSLRLICAASGRIFHCYAMGWYRQAPGKERELVAAIRASGGRTYYADSVKGRFTISRDNAKNTVYVQMNSLKPEDPAVYYCGADSVKYGGDYWGQGTQVTVSS
polyreactivity (PSR sort gate): high polyreactivity

QVQLVESGGGLVQAGGSLRLSCAASGSIFISNAMGWYRQAPGKEWELVAAINWTTGRTRYADSVKGRFTISRDNAKNTVYLQMNSLKPEDTAVYYCAARPYGGGRRSIYYYWGQGHQVTVSS
polyreactivity (PSR sort gate): high polyreactivity

QVQLLESGGGLVQAGGSLRLSCAASGLTFVRYDMGWDRQAPGKERELVAAISSSGGSTNYADSVKGRFTISRDNAKNTVYLQMNSLKPEDTAVYYCAADYTWRFLRFGYWGQGTQVTVSS
polyreactivity (PSR sort gate): high polyreactivity

QVQLVESGGGLVQAGGSHRLSCAASGSTFVPYTMGWYRQAPGKERELVAAISGSGGTDYADSVKGRFTISRDNAKNTVYLQMNSLKPEDTAVYYCATDGLDFWFIYDYWGQGTQVTVST
polyreactivity (PSR sort gate): low polyreactivity

QVQLVESGGGLVQAGGILRLSCAASGFIFTANDMGWYIQAPGKVRELVAAISSGGRTYYADSVKGRFTISRDNAKNSVYFQKNSLKPEDTAVYYCARDLYVRNGQRARYDSWGQGTQVTVSS
polyreactivity (PSR sort gate): high polyreactivity

QVQLVESGGGLVQAGGSLRLSCPASGFNFRYYAIGWYRQAPGKERQLVAAISRIGGSTNYADSVKGRFTISRDNAKNTVYLQLNSLKPEDTAVYYCAVAEGYSPAYLRDYWGQGSQVTVSS
polyreactivity (PSR sort gate): high polyreactivity

QVQLVESGGGLVQAGGSLRLSCAASGSIFAGNAMGWYRQAPGKERELVAGITFGDDSTYYADSVKGRFTISRDNAKNTVYLQMNSLKPEDTAVYYCATDLHPYNYYFYHYWVDAAYDYWGQGTQVTVSS
polyreactivity (PSR sort gate): low polyreactivity

QVQLVESGGGLVQAGGSLRVSFAASGLTFFQYGMGWYRQAPGKERELVASITRSRGRTNYADSVKGRFTISRDNAKYTVYLQMNSLKPEDTAVYYCAAYYYGSSAYGYGYNYWGQGTQVTVSS
polyreactivity (PSR sort gate): high polyreactivity

QVQLVESGGGLVQAGGSLRLSCAASGSTLFNYDMGWYRQAPGKERELVAAFDWGDGTTYYADSVKGRFTISRDNAKNTVYLQMNSLKPEDTAVYYCAAEEFYSPYDYWGQGTQVTVSS
polyreactivity (PSR sort gate): high polyreactivity

QVQIVESGGGLVQAGGSLRLSCAASGSTFQYYAMGWYRQAPGKERELVAGITWRDGNTYYADSVKGRFTISRDNAKNSVYLQMNSLKPEDTAVYYCAARRYFVIYFPYDYWGQGTQVTVSS
polyreactivity (PSR sort gate): low polyreactivity
